Data reported in US20220048967A1 (published 2022).
Numbering of substitutions follows the chain as printed. Numbered stars: 1 amine (or outer) side, 2 acyl side, 3 side chain; on linkers, the order of the positions; unused ones are H or OH. Square brackets hold non-standard residues; d marks the D form. Side chains are listed from the residue outwards. Ends that are not written are not given here. * marks the point of attachment. C20 diacid = O=C(O)CCCCCCCCCCCCCCCCCCC(=O)*; αMePhe(2-F) = C[C@](N)(Cc1ccccc1F)C(=O)O; γGlu = O=C(O)[C@H](CCC(=O)[*:2])N[*:1]; Desaminotyrosyl = O=C(CCc1ccc(O)cc1)*; αMeF = C[C@](N)(Cc1ccccc1)C(=O)O; AEEA = NCCOCCOCC(=O)O; Aib = CC(C)(N)C(=O)O

T1: human gastric inhibitory peptide receptor (GIPR) (human, UniProt P48546 22-466)
T1 sequence (looked up): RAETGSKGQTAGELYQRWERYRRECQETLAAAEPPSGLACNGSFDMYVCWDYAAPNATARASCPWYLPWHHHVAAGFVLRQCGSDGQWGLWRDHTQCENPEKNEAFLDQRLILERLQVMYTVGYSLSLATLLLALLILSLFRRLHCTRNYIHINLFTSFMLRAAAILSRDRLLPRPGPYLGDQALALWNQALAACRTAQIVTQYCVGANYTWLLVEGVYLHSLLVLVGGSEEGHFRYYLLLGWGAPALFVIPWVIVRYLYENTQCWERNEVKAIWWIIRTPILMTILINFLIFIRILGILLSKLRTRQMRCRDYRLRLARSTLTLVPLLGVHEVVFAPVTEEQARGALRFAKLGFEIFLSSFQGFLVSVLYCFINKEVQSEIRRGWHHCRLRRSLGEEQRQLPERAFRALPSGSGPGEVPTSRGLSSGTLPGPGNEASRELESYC

B1: Example 135 (peptide)
peptide: H[Aib]NGTFTSDYSILLDKK([AEEA-AEEA-γGlu-C20 diacid])AQ[Aib]AFIEYLIEGGPSSGAPPPS-NH2
modifications: N-terminus assumed
SMILES: CC[C@H](C)[C@H](NC(=O)[C@H](CC(C)C)NC(=O)[C@H](Cc1ccc(O)cc1)NC(=O)[C@H](CCC(=O)O)NC(=O)[C@@H](NC(=O)[C@H](Cc1ccccc1)NC(=O)[C@H](C)NC(=O)C(C)(C)NC(=O)[C@H](CCC(N)=O)NC(=O)[C@H](C)NC(=O)[C@H](CCCCNC(=O)COCCOCCNC(=O)COCCOCCNC(=O)CC[C@H](NC(=O)CCCCCCCCCCCCCCCCCCC(=O)O)C(=O)O)NC(=O)[C@H](CCCCN)NC(=O)[C@H](CC(=O)O)NC(=O)[C@H](CC(C)C)NC(=O)[C@H](CC(C)C)NC(=O)[C@@H](NC(=O)[C@H](CO)NC(=O)[C@H](Cc1ccc(O)cc1)NC(=O)[C@H](CC(=O)O)NC(=O)[C@H](CO)NC(=O)[C@@H](NC(=O)[C@H](Cc1ccccc1)NC(=O)[C@@H](NC(=O)CNC(=O)[C@H](CC(N)=O)NC(=O)C(C)(C)NC(=O)[C@@H](N)Cc1c[nH]cn1)[C@@H](C)O)[C@@H](C)O)[C@@H](C)CC)[C@@H](C)CC)C(=O)N[C@@H](CCC(=O)O)C(=O)NCC(=O)NCC(=O)N1CCC[C@H]1C(=O)N[C@@H](CO)C(=O)N[C@@H](CO)C(=O)NCC(=O)N[C@@H](C)C(=O)N1CCC[C@H]1C(=O)N1CCC[C@H]1C(=O)N1CCC[C@H]1C(=O)N[C@@H](CO)C(N)=O
B2: Example 128 (peptide)
peptide: YXEGTXTSDHSILLDKKAQXAFIEYLIEGGPSSGAPPPS
modifications: Y-Aib-EGT-αMeF-TSDHSILLDKK((2-[2-(2-Amino-ethoxy)-ethoxy]-acetyl)2-(γ-Glu)-CO-(CH2)18-CO2H)AQ-Aib-AFIEYLIEGGPSSGAPPPS-NH2
B3: Example 129 (peptide)
peptide: B2 peptide with H10L
modifications: Y-Aib-EGT-αMeF-TSDLSILLDKK((2-[2-(2-Amino-ethoxy)-ethoxy]-acetyl)2-(γ-Glu)-CO-(CH2)18-CO2H)AQ-Aib-AFIEYLIEGGPSSGAPPPS-NH2
B4: Example 130 (peptide)
peptide: B2 peptide with H10E
modifications: Y-Aib-EGT-αMeF-TSDESILLDKK((2-[2-(2-Amino-ethoxy)-ethoxy]-acetyl)2-(γ-Glu)-CO-(CH2)18-CO2H)AQ-Aib-AFIEYLIEGGPSSGAPPPS-NH2
B5: Example 132 (peptide)
peptide: B2 peptide with H10X
modifications: Y-Aib-EGT-αMeF-TSD-3Pal-SILLDKK((2-[2-(2-Amino-ethoxy)-ethoxy]-acetyl)2-(γ-Glu)-CO-(CH2)18-CO2H)AQ-Aib-AFIEYLIEGGPSSGAPPPS-NH2
B6: Example 131 (peptide)
peptide: B2 peptide with H10X
modifications: Y-Aib-EGT-αMeF-TSD-αMeF-SILLDKK((2-[2-(2-Amino-ethoxy)-ethoxy]-acetyl)2-(γ-Glu)-CO-(CH2)18-CO2H)AQ-Aib-AFIEYLIEGGPSSGAPPPS-NH2
B7: Example 134 (peptide)
peptide: [Desaminotyrosyl][Aib]EGT[αMePhe(2-F)]TSDYSIXLDEK([AEEA-AEEA-γGlu-C20 diacid])AQ[Aib]EFIEYLIEGGPSSGAPPPS-NH2
modifications: not fully specified (residue 13); printed as DesTyr-Aib-EGT-αMeF(2F)-TSDYSI-αMeF-LDEK((2-[2-(2-Amino-ethoxy)-ethoxy]-acetyl)2-(γ-Glu)-CO-(CH2)18-CO2H)AQ-Aib-EFIEYLIEGGPSSGAPPPS-NH2
B8: Example 136 (peptide)
peptide: Y[Aib]EGTFTSDASILLDKK([AEEA-AEEA-γGlu-C20 diacid])AQ[Aib]AFIEYLIEAGPSSGAPPPS-NH2
modifications: N-terminus assumed
SMILES: CC[C@H](C)[C@H](NC(=O)[C@H](CC(C)C)NC(=O)[C@H](Cc1ccc(O)cc1)NC(=O)[C@H](CCC(=O)O)NC(=O)[C@@H](NC(=O)[C@H](Cc1ccccc1)NC(=O)[C@H](C)NC(=O)C(C)(C)NC(=O)[C@H](CCC(N)=O)NC(=O)[C@H](C)NC(=O)[C@H](CCCCNC(=O)COCCOCCNC(=O)COCCOCCNC(=O)CC[C@H](NC(=O)CCCCCCCCCCCCCCCCCCC(=O)O)C(=O)O)NC(=O)[C@H](CCCCN)NC(=O)[C@H](CC(=O)O)NC(=O)[C@H](CC(C)C)NC(=O)[C@H](CC(C)C)NC(=O)[C@@H](NC(=O)[C@H](CO)NC(=O)[C@H](C)NC(=O)[C@H](CC(=O)O)NC(=O)[C@H](CO)NC(=O)[C@@H](NC(=O)[C@H](Cc1ccccc1)NC(=O)[C@@H](NC(=O)CNC(=O)[C@H](CCC(=O)O)NC(=O)C(C)(C)NC(=O)[C@@H](N)Cc1ccc(O)cc1)[C@@H](C)O)[C@@H](C)O)[C@@H](C)CC)[C@@H](C)CC)C(=O)N[C@@H](CCC(=O)O)C(=O)N[C@@H](C)C(=O)NCC(=O)N1CCC[C@H]1C(=O)N[C@@H](CO)C(=O)N[C@@H](CO)C(=O)NCC(=O)N[C@@H](C)C(=O)N1CCC[C@H]1C(=O)N1CCC[C@H]1C(=O)N1CCC[C@H]1C(=O)N[C@@H](CO)C(N)=O
B9: Example 133 (peptide)
peptide: [Desaminotyrosyl][Aib]EGT[αMeF]TSDYSI[Aib]LDEK([AEEA-AEEA-γGlu-C20 diacid])AQ[Aib]AFIEYLIEGGPSSGAPPPS-NH2
SMILES: CC[C@H](C)[C@H](NC(=O)[C@H](CC(C)C)NC(=O)[C@H](Cc1ccc(O)cc1)NC(=O)[C@H](CCC(=O)O)NC(=O)[C@@H](NC(=O)[C@H](Cc1ccccc1)NC(=O)[C@H](C)NC(=O)C(C)(C)NC(=O)[C@H](CCC(N)=O)NC(=O)[C@H](C)NC(=O)[C@H](CCCCNC(=O)COCCOCCNC(=O)COCCOCCNC(=O)CC[C@H](NC(=O)CCCCCCCCCCCCCCCCCCC(=O)O)C(=O)O)NC(=O)[C@H](CCC(=O)O)NC(=O)[C@H](CC(=O)O)NC(=O)[C@H](CC(C)C)NC(=O)C(C)(C)NC(=O)[C@@H](NC(=O)[C@H](CO)NC(=O)[C@H](Cc1ccc(O)cc1)NC(=O)[C@H](CC(=O)O)NC(=O)[C@H](CO)NC(=O)[C@@H](NC(=O)[C@](C)(Cc1ccccc1)NC(=O)[C@@H](NC(=O)CNC(=O)[C@H](CCC(=O)O)NC(=O)C(C)(C)NC(=O)CCc1ccc(O)cc1)[C@@H](C)O)[C@@H](C)O)[C@@H](C)CC)[C@@H](C)CC)C(=O)N[C@@H](CCC(=O)O)C(=O)NCC(=O)NCC(=O)N1CCC[C@H]1C(=O)N[C@@H](CO)C(=O)N[C@@H](CO)C(=O)NCC(=O)N[C@@H](C)C(=O)N1CCC[C@H]1C(=O)N1CCC[C@H]1C(=O)N1CCC[C@H]1C(=O)N[C@@H](CO)C(N)=O
B10: Example 140 (peptide)
peptide: Y[Aib]EGT[αMeF]TSDYSIXLDKKAQ[Aib]DFIEYLIEGGPSSGAPPPS-NH2
modifications: not fully specified (residues 13, 17); printed as Y-Aib-EGT-αMeF-TSDYSI-αMeF-LDKK((2-[2-(2-Amino-ethoxy)-ethoxy]-acetyl)2-(γ-Glu)-CO-(CH2)18-CO2H)AQ-Aib-DFIEYLIEGGPSSGAPPPS-NH2
B11: Example 142 (peptide)
peptide: Y[Aib]EGT[αMeF]TSDYSIXLDKKAQ[Aib]HFIEYLIEGGPSSGAPPPS-NH2
modifications: not fully specified (residues 13, 17); printed as Y-Aib-EGT-αMeF-TSDYSI-αMeF-LDKK((2-[2-(2-Amino-ethoxy)-ethoxy]-acetyl)2-(γ-Glu)-CO-(CH2)18-CO2H)AQ-Aib-HFIEYLIEGGPSSGAPPPS-NH2
B12: Example 139 (peptide)
peptide: Y[Aib]EGT[αMeF]TSDYSIXLDKK([AEEA-AEEA-γGlu-C20 diacid])AQ[Aib]TFIEYLIEGGPSSGAPPPS-NH2
modifications: not fully specified (residue 13); printed as Y-Aib-EGT-αMeF-TSDYSI-αMeF-LDKK((2-[2-(2-Amino-ethoxy)-ethoxy]-acetyl)2-(γ-Glu)-CO-(CH2)18-CO2H)AQ-Aib-TFIEYLIEGGPSSGAPPPS-NH2
B13: Example 143 (peptide)
peptide: Y[Aib]EGT[αMeF]TSDYSIXLDKKAQ[Aib][Aib]FIEYLIEGGPSSGAPPPS-NH2
modifications: not fully specified (residues 13, 17); printed as Y-Aib-EGT-αMeF-TSDYSI-αMeF-LDKK((2-[2-(2-Amino-ethoxy)-ethoxy]-acetyl)2-(γ-Glu)-CO-(CH2)18-CO2H)AQ-Aib-Aib-FIEYLIEGGPSSGAPPPS-NH2
B14: Example 141 (peptide)
peptide: Y[Aib]EGT[αMeF]TSDYSIXLDKKAQ[Aib]IFIEYLIEGGPSSGAPPPS-NH2
modifications: not fully specified (residues 13, 17); printed as Y-Aib-EGT-αMeF-TSDYSI-αMeF-LDKK((2-[2-(2-Amino-ethoxy)-ethoxy]-acetyl)2-(γ-Glu)-CO-(CH2)18-CO2H)AQ-Aib-IFIEYLIEGGPSSGAPPPS-NH2

molecular target: T1, human gastric inhibitory peptide …; test: cell-based or functional assay

Binder	hGIPR cAMP EC50 ratio	hGIPR cAMP Rel EC50 [nM]
B1	0.482	0.373
B2	2.46	0.0694
B3	1.88	0.106
B4	0.116	1.55
B5	2.88	0.0657
B6	1.03	0.183
B7	1.43	0.104
B8	0.0544	3.39
B9	1.89	0.0879
B10	3.76	0.0349
B11	2.84	0.0489
B12	3.61	0.037
B13	2.78	0.0515
B14	0.538	0.2

molecular target: human GLP-1 receptor (GLP-1R) (human, UniProt P43220 24-463); test: cell-based or functional assay

Binder	hGLP1R cAMP EC50 ratio	hGLP1R cAMP Rel EC50 [nM]
B1	0.509	0.131
B2	0.7	0.0924
B3	0.543	0.121
B4	0.182	0.368
B5	0.255	0.26
B6	0.425	0.156
B7	0.942	0.0654
B8	1.1	0.06
B9	1.52	0.0436
B10	1.16	0.0424
B11	1.22	0.0426
B12	1.13	0.0417
B13	0.714	0.0745
B14	0.414	0.0975
